From publication doi:10.1101/2024.10.14.618152

Target: Zt-KP4-1 (Zt-NIP1) (Zymoseptoria tritici)
Assay: SEC

Zt-KP4-1 (Zt-NIP1) (natural protein)
stoichiometry N: 2
